Measured values: PMC6071530 (2018)

Target: ERBB2 (Homo sapiens (Human), UniProt P04626)
Experiment: SPR (ErbB-Fc on chip, avid)

Kd: > 1250 nM
B1: S100A4 (protein)
chain 1: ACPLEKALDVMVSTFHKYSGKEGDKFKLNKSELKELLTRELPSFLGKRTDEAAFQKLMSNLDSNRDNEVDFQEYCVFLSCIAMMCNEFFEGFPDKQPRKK
chain 2: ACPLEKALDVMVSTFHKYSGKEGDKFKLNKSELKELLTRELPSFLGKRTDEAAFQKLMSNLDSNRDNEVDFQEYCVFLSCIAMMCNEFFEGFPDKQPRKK
